The values below come from US20180208658A1 (EUREKA THERAPEUTICS, published 2018).

The target of test [1] is T1, HLA-A*02:01 on T2 cells with β2M but without peptide loaded (human).
T1 construct: control without added peptide; also called β2M-loaded T2 cells
Briefly: FACS of scFv phage on β2M-loaded T2 cells without peptide.
Description: (§1) Specific and unique clones were further tested for their binding to HLA-A2/peptide complexes on live cell surfaces by flow cytometry (FACS analysis) using AFP158-loaded live T2 cells. T2 cells loaded with different peptides and β2M were first stained with purified scFv phage clones, followed by staining with a mouse anti-M13 mAb, and finally the R-PE conjugated horse anti-mouse IgG from Vector Labs. Each step of the staining was done between 30-60 minutes on ice and the cells were washed twice between staining.

Test [2] addresses T2, hTERT540 peptide (…)/HLA-A*02:01 on T2 cells (human).
T2 construct: control peptide-MHC; also called β2M/hTERT peptide-loaded T2 cells
Briefly: FACS of scFv phage on hTERT peptide-loaded T2 cells.
Description: as §1

The target in test [3] is T3, mouse AFP158 peptide/HLA-A*02:01 complex on T2 cells (human; mouse).
T3 construct: also called mouse AFP158-loaded T2 cells
Description: FACS of scFv phage on mouse AFP158 peptide-loaded T2 cells.

In test [4] the target is T4, AFP158/HLA-A*02:01 complex presented on cells (human).
T4 construct: the cell line used is named under assay in each row; also called AFP158-loaded T2 cells; human AFP158-loaded T2 cells
Description: FACS of scFv phage on AFP158 peptide-loaded T2 cells, anti-M13 mAb and R-PE anti-mouse IgG.
Description: as §1

Another test has as its target T5, recombinant AFP protein (UniProt P02771 19-609, limits assumed).
T5 construct: also called AFP recombinant protein
T5 sequence (looked up): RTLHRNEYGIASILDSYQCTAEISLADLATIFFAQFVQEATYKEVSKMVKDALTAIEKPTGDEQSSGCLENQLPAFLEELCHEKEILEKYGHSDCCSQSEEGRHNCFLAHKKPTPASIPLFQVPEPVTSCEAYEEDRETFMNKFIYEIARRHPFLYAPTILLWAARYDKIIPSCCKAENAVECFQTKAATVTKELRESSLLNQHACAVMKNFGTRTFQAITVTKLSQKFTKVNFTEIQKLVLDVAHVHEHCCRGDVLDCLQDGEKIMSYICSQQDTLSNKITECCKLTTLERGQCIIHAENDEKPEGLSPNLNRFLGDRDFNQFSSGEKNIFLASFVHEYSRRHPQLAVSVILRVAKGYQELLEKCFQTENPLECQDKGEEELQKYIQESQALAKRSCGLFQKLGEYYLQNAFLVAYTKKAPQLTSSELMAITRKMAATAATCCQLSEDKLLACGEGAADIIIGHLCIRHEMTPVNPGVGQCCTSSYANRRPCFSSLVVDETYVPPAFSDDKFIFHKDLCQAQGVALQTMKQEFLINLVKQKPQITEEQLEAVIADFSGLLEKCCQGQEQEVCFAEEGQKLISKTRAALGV
Description: ELISA on AFP protein coated at 2 µg/mL. (An ELISA detects its analyte on a solid surface through an enzyme-linked reagent.)

Test [5] concerns the target T4, AFP158/HLA-A*02:01 complex presented on …. Briefly: FACS, phage clone on peptide-loaded T2 cells. On the technique in general: Flow cytometry measures light scatter and fluorescence of single cells or particles in a stream.
In test [6] the target is T3, mouse AFP158 peptide/HLA-A*02:01 …. Description: FACS, phage clone on peptide-loaded T2 cells.
In test [7] the target is T4, AFP158/HLA-A*02:01 complex presented on …. Briefly: FACS, scFv phage clone on peptide-loaded T2 cells.
Description: (§2) Antibody phage clones were then tested for binding to these peptide-loaded T2 cells by FACS analysis.
For test [8], the target named is T6, hAFP158 A5 peptide (…)/HLA-A*02:01 on T2 cells (human).
T6 construct: also called Ala Position 5
Description: FACS, scFv phage clone on peptide-loaded T2 cells.
Description: as §2

The target in test [9] is T7, hAFP158 A8 peptide (…)/HLA-A*02:01 on T2 cells (human).
T7 construct: also called Ala Position 8
Description: FACS, scFv phage clone on peptide-loaded T2 cells.
Description: as §2

The target of test [10] is T8, hAFP158 A7 peptide (…)/HLA-A*02:01 on T2 cells (human).
T8 construct: also called Ala Position 7
Description: FACS, scFv phage clone on peptide-loaded T2 cells.
Description: as §2

Test [11] addresses T9, hAFP158 A6 peptide (…)/HLA-A*02:01 on T2 cells (human).
T9 construct: also called Ala Position 6
Description: FACS, scFv phage clone on peptide-loaded T2 cells.
Description: as §2

In test [12] the target is T10, hAFP158 A1 peptide (…)/HLA-A*02:01 on T2 cells (human).
T10 construct: also called Ala Position 1
Description: FACS, scFv phage clone on peptide-loaded T2 cells.
Description: as §2

For test [13], the target named is T11, hAFP158 A4 peptide (…)/HLA-A*02:01 on T2 cells (human).
T11 construct: also called Ala Position 4
Description: FACS, scFv phage clone on peptide-loaded T2 cells.
Description: as §2

Test [14] concerns the target T12, hAFP158 A3 peptide (…)/HLA-A*02:01 on T2 cells (human).
T12 construct: also called Ala Position 3
Briefly: FACS, scFv phage clone on peptide-loaded T2 cells.
Description: as §2

Description for recombinant AFP protein: Antibodies were tested at 3× serial dilution, starting from 100 ng/mL, for a total of 8 concentrations. Biotinlyated AFP158/A*02:01 MHC was coated onto streptavidin plates at 2 μg/mL, AFP protein was coated at 2 μg/mL and AFP158 peptide was coated at 40 ng/mL.

B1: #44 (scFv, V domains shown, not shown: large carriers; small tags and cut ends)
VH: QVQLVQSGAEVKKPGSSVKVSCKASGGTFSSYAISWVRQAPGQGLEWMGGIIPIFGTANYAQKFQGRVTITADESTSTAYMELSSLRSEDTAVYYCAREIRGYYYYYGMDVWGQGTTVTVSS
VL: SYELTQPPSVSVAPGKTARITCGGDNIGTKSVTWYQQRPGQAPMMVIYYDTVRPSGIPERLSGSNSGNTATLTITRVEAGDEADYYCQVWDSSSDHPVFGGGTKLTVL
notes: also called Clone 44; AFP158/HLA-A*02:01-specific scFv phage clone #44; copies: 1 + 1
Turning to B1, the binding result in test [1] is on record as “no binding”; in test [2] it was “no binding”; in test [3], “no binding”; in [4] it was “binds”.

B2: #50 (scFv, V domains shown, not shown: large carriers; small tags and cut ends)
VH: QVQLQESGPGLVKPSGTLSLTCAVSGGSISSSNWWSWVRQPPGKGLEWIGEIYHSGSTNYNPSLKSRVTISVDKSKNQFSLKLSSVTAADTAVYYCATGYGGYFDYWGQGTLVTVSS
VL: QSVLTQPPSVSVAPGKTARITCGGNNIGSKSVHWYQQKPGQAPVLVIYYDSDRPSGIPERFSGSNSGNTATLTISRVEAGDEADYYCQVWDSSSDHVVFGGGTKLTVL
notes: also called Clone 50; AFP158/HLA-A*02:01-specific scFv phage clone #50; copies: 1 + 1
Turning to B2, the results for the binding result in test [1], in [2] and in [4] were “no binding”, “no binding” and “binds”, respectively.

B3: full-length AFP158 mouse chimeric IgG1 antibody 1402-79 (antibody, V domains shown)
VH: QMQLVQSGGGLVQPGRSLRLSCAASGFTFDDYAMHWVRQAPGKGLEWVSGISWNSGSIGYADSVKGRFTISRDNAKNSLYLQMNSLRAEDTALYYCAKDIHSGSYYGLLYYAMDVWGQGTTVTVSS
VL: QSVLTQPPSVSGAPGQRVTISCTGSSSNIGAGYDVHWYQQLPGTAPKLLIFGNSNRPSGVPDRFSGFKSGTSASLAITGLQAEDEADYFCQSYDSSLSGSGVFGTGTKVTVLG
notes: bivalent IgG
Regarding B3, the binding result in the test with recombinant AFP protein is on record as “no binding (tested: 100 ng/mL)”.

B4: AFP158/HLA-A*02:01-specific scFv phage clone #17 (scFv, V domains shown)
VH: EVQLVQSGAEVKKPGASVKVSCKASGYTFTSYGISWVRQAPGQGLEWMGWISAYNGNTNYAQKLQGRVTMTTDTSTSTAYMELRSLRSDDTAVYYCARYQDWWYLGQFDQWGQGTLVTVSS
VL: QSALTQPASVSGSPGQSITISCTATGSDVGVYYYVSWYQQHPGKAPKVMIYDVGNRPPGVSNRFSGSKSGNTASLTISGLQAEDEADYYCASYTNRNSLGYVFGTGTKVTVLG
As for B4, the binding result in test [5] and in test [6] was “binds” each time.

B5: AFP158/HLA-A*02:01-specific scFv phage clone #17-13 (scFv, V domains shown)
VH: EVQLVQSGAEVKKPGASVKVSCKASGYTFTSYGISWVRQAPGQGLEWMGWISAYNGNTNYAQKLQGRVTMTTDTSTSTAYMELRSLRSDDTAVYYCARFQDWWYLGQFDQWGQGTLVTVSS
VL: QSALTQPASVSGSPGQSITISCTATGSDVGVYYYVSWYQQHPGKAPKVMIYDVDNRPPGVSNRFSGSKSGNTASLTISGLQAEDEADYYCASYTNRNSLGYVFGTGTKVTVLG
notes: also called AM1402-17-13
Consider B5, for which the “FACS binding signal (name and unit not given)” value in [7] came out at 83300; in [8] it was 1500; in [9], 43200; in test [10], 572; in test [11] it was 28800; in test [12], 55600. Besides, the “FACS binding signal (name and unit not given)” value in test [13] came to 50800; in test [14] it was 2910.

B6: AFP158/HLA-A*02:01-specific scFv phage clone #33 (scFv, V domains shown)
VH: QVQLQQSGPGLVKPSQTLSLTCAISGDSVSSNSAAWNWIRQSPSRGLEWLGRTYYRSKWYNDYAVSVKSRITINPDTSKNQFSLQLNSVTPEDTAVYYCARGSYYSGRYDAWGQGTLVTVSS
VL: NFMLTQPHSVSESPGKTVTISCTRSSGSIASNYVQWYQQRPGSSPTTVIYEDNQRPSGVPDRFSGSIDSSSNSASLTISGLKTEDEADYYCQSYDSSTVVFGGGTKLTVLG
With B6, the binding result is given as “no binding” in test [1], “binds” in test [6], “no binding” in [2] and “binds” in test [4].

B7: full-length AFP158 mouse chimeric IgG1 antibody 1402-61 (antibody, V domains shown)
VH: EVQLVQSGAEVKKPGESLTISCKASGYSFPNYWITWVRQMSGGGLEWMGRIDPGDSYTTYNPSFQGHVTISIDKSTNTAYLHWNSLKASDTAMYYCARYYVSLVDIWGQGTLVTVSS
VL: QSVLTQPASVSGSPGQSITISCTGTSSDVGGYNYVSWYQQHPGKAPKLMIYDVNNRPSEVSNRFSGSKSGNTASLTISGLQAEDEADYYCSSYTTGSRAVFGGGTKLTVLG
notes: bivalent IgG
As to B7, the binding result with recombinant AFP protein is “no binding (tested: 100 ng/mL)”.

B8: AFP158/HLA-A*02:01-specific scFv phage clone #48 (scFv, V domains shown)
VH: EVQLVESGGGLVQPGRSLRLSCAASGFTFDDYAMHWVRQAPGKGLEWVSGISWNSGRIGYADSVKGRFTISRDNAKNSLYLQMNSLRAEDTAVYYCARADDYGAPYYYYGMDVWGQGTTVTVSS
VL: QSVLTQPPSVSGAPGQRVTISCTGSSSNIGAGYDVHWYQQLPGTAPKLLIYGNSNRPSGVPDRFSGSKSGTSASLAITGLQAEDEADYYCQSYDSSLSGSVFGTGTKVTVLG
With B8, the binding result in test [1] is “no binding”; in [6], “binds”; in [2] it was “no binding”; in [4], “binds”.

B9: full-length AFP158 mouse chimeric IgG1 antibody 1402-76 (antibody, V domains shown)
VH: EVQLVESGGGLVKPGGSLRLSCAASGFTFSNAWMSWVRQAPGKGLEWVGFIRSKAYGGTTEYAASVKGRFTISRDDSKSIAYLQMNNLKTEDTAVYYCARDGLYSSSWYDSDYWGQGTLVTVSS
VL: QSVVTQPPSVSAAPGQKVTISCSGSSSNIGNNYVSWYQQLPGTAPKLLIYDNNKRPSGIPDRFSGSKSGTSATLGITGLQTGDEADYYCGTWDGSLYTMLFGGGTKLTVLG
notes: bivalent IgG
B9: the binding result in the test with recombinant AFP protein was “no binding (tested: 100 ng/mL)”.
